These results are taken from patent US20210261685A1 (Alector, published 2021).

Substitutions are numbered along the chain they refer to.

To fix the notation:
T1: cyno MerTK extracellular domain (ECD), recombinant (cynomolgus monkey, UniProt Q12866 21-505 (human entry))
T1 construct: also called cynomolgus MerTK; not shown: polyHis tag or TEVS/Thrombin/murine IgG2a Fc tag
T1 chain: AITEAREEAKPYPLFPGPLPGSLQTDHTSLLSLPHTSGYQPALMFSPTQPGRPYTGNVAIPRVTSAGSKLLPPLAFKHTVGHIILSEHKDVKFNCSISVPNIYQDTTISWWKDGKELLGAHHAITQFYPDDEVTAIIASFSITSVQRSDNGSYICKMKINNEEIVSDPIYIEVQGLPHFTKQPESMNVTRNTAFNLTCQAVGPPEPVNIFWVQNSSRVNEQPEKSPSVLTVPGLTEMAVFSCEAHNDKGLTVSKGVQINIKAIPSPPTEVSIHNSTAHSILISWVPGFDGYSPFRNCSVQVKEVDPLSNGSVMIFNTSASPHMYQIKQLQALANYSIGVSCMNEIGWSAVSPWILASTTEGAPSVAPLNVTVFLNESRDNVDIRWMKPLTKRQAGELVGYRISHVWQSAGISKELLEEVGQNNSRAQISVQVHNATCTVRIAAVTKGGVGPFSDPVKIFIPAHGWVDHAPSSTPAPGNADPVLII

T2: murine MerTK extracellular domain (ECD), recombinant (mouse, UniProt Q60805 19-497)
T2 construct: also called moMerTK; mouse MerTK; not shown: polyHis tag or TEVS/Thrombin/murine IgG2a Fc tag
T2 sequence: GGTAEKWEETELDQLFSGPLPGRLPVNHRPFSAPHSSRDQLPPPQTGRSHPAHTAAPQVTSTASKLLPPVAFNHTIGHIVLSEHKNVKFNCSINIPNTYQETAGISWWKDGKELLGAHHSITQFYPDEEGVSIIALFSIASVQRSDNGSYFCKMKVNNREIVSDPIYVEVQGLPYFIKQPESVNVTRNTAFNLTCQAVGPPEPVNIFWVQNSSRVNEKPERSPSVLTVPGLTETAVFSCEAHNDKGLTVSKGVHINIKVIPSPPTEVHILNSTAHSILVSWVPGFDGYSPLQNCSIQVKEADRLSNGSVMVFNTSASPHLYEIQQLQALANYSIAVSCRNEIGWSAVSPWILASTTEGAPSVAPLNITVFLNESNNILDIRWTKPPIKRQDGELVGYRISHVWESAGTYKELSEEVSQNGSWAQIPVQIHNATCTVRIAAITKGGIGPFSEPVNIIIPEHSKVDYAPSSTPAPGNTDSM

T3: human MerTK extracellular domain (ECD), recombinant (human, UniProt Q12866 21-505)
T3 construct: also called huMerTK; not shown: polyHis tag or TEVS/Thrombin/murine IgG2a Fc tag
T3 sequence: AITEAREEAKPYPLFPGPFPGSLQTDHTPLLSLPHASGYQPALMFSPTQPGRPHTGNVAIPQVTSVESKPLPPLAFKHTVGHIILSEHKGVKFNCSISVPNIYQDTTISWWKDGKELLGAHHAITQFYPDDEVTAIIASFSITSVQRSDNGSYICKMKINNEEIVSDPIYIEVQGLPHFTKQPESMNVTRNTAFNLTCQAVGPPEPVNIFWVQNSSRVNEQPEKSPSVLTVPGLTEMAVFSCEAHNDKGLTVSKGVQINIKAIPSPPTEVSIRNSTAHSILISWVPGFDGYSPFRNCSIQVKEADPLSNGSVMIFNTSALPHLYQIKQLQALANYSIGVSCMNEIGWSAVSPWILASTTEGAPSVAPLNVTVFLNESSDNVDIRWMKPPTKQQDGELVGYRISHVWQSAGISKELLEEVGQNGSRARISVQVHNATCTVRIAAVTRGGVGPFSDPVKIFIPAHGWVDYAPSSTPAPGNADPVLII

B1: MTK-16.1 (antibody, V domains shown)
VH: QVQLVQSGSELKKPGASVKVSCKASGYTFTNHGMNWVRQAPGQGLEWMGWINTYTGEPTYAQGFTGRFVFSLDTSVSTAYLQISSLKAEDTAVYYCARKGVTAARYFDYWGQGTLVTVSS
VL: DIQMTQSPSSLSASVGDRVTITCKASQNVRTAVAWYQQKPGKAPKRLIYLASNRHTGVPSRFSGSGSGTEFTLTISNLQPEDFATYYCLQHWNYPLTFGGGTKVEIK
B2: MTK-16.2 (antibody, V domains shown)
VH: B1 VH with Q62D, G63D, T65K
VL: B1 VL with K24R, V104L
B3: MTK-29.8 (antibody, human IgG1, V domains shown)
VH: QVQLVQSGSELKKPGASVKVSCKASGYIFTTYGLSWVRQAPGQGLEWMGWINTYSGVPTYTDDFKGRFVFSLDTNVSTAYLQISSLKAEDTAVYYCARYTNYGVFDYWGQGTLVTVSS
VL: DIQLTQSPSFLSASVGDRVTITCRASSSVGYMHWYQQKPGKAPKLLIYATSNLAQGVPSRFSGSGSGTEFTLTISSLQPEDFATYYCQQWGSLPFTFGQGTKLEIK
B4: MTK-29.9 (antibody, human IgG1, V domains shown)
VH: B3 VH with T31S, N75S
VL: B3 VL with E69G
B5: MTK-29.7 (antibody, human IgG1, V domains shown)
VH: B3 VH with G26S, I28T, L34M, T59S, G66A, N75S
VL: B3 VL
B6: MTK-29.5 (antibody, human IgG1, V domains shown)
VH: B3 VH with T31S, N75S, S85P
VL: B3 VL
B7: MTK-15.3 (antibody, human IgG1, V domains shown)
VH: QVQLVQSGSELKKPGASVKVSCKASGYTFTNYGVHWVRQAPGQGLEWMGWINTYTGEPTYAQGFTGRFVFSLDTSVSTAYLQISSLKAEDTAVYYCARGNRYAYMDYWGQGTLVTVSS
VL: EIVLTQSPATLSLSPGERATLSCRASSHVSYMHWYQQKPGQAPRPLIYATSNLASGIPARFSGSGSGTSYTLTISSLEPEDFAVYYCQQWSSNPRTFGGGTKVEIK
B8: MTK-15.10 (antibody, human IgG1, V domains shown)
VH: B7 VH with T30A, T55Q, A97T, N100A
VL: B7 VL with H28S, S30G
B9: MTK-15.2 (antibody, human IgG1, V domains shown)
VH: B7 VH with I51G
VL: B7 VL with H28S
B10: MTK-15.5 (antibody, human IgG1, V domains shown)
VH: B7 VH with A97T, N100T
VL: B7 VL with H28S, S30G
B11: MTK-15.12 (antibody, human IgG1, V domains shown)
VH: B7 VH with T30A, T55Q, N100V
VL: B7 VL with H28S, S30G, L77P
B12: MTK-15.13 (antibody, human IgG1, V domains shown)
VH: B7 VH with M105E
VL: B7 VL with H28S, S30Q
B13: MTK-15.6 (antibody, human IgG1, V domains shown)
VH: B7 VH with T59Y
VL: B7 VL with H28S, S30G
B14: MTK-15.8 (antibody, human IgG1, V domains shown)
VH: B7 VH with N100V
VL: B7 VL with H28S, S30G, L77P
B15: MTK-15.11 (antibody, human IgG1, V domains shown)
VH: B7 VH with T30A, T55E, M105Q
VL: B7 VL with H28S
B16: MTK-15.9 (antibody, human IgG1, V domains shown)
VH: B7 VH with N100Y
VL: B7 VL with H28S, V29T
B17: MTK-15.7 (antibody, human IgG1, V domains shown)
VH: B7 VH with A97V
VL: B7 VL with H28G
B18: MTK-15.1 (antibody, human IgG1, V domains shown)
VH: B7 VH with M105Q
VL: B7 VL with H28S
B19: MTK-15.4 (antibody, human IgG1, V domains shown)
VH: B7 VH
VL: B7 VL with H28S, S30G

The first test has as its target T1, cyno MerTK extracellular domain (ECD), …. The experiment in a line: SPR, Carterra LSA, antibody immobilised. Here is the method: (§1) Binding kinetics of humanized and affinity-matured anti-MerTK antibodies of the present disclosure to human, murine, and cynomolgus MerTK proteins were evaluated as follows. Briefly, anti-MerTK antibodies were prepared by diluting to 10 μg/ml in 10 mM Acetate, pH 4.25 (Carterra, Salt Lake City, Utah), at 300 μl/well. A HC200M sensor chip (Carterra) was activated using the single channel flow cell with a 7-minute injection of a 1:1:1 mixture of 100 mM MES pH 5.5, 100 mM sulfo-NHS, 400 mM EDC (all reconstituted in MES pH 5.5; 100 μl of each mixed in vial immediately before running assay). After switching to the multi-channel array flow cell, the antibodies were injected over the activated chip in a 96-spot array for 15 minutes. The remaining unconjugated active groups on the chip were then blocked by injecting 1M Ethanolamine pH 8.5 (Carterra) for 7 minutes using the single channel flow cell.
(§2) Estimates of affinity were generated by injecting each analyte over the entire antibody array using the single channel flow cell. MerTK analytes were diluted to 33.3, 100, and 300 nM in running buffer, and injected in serial from lowest to highest concentration without regeneration. Two buffer blanks were run between each series (one species per series). Data were processed and analyzed using NextGenKIT high-throughput kinetics analysis software (Carterra). In these experiments, the anti-MerTK antibodies were human IgG1 isotype containing the Fc variant LALAPS.
(§3) The equilibrium dissociation constants (KD) were then calculated from the fitted association and dissociation rate constants (k-on and k-off) for anti-MerTK antibodies of the present disclosure.
Background: Surface plasmon resonance follows binding to a sensor surface in real time, without labels.
The Kd is the constant that tells how readily two partners part at equilibrium. Regarding B1, the Kd was 170 nM.

Turning to B2, the Kd amounted to 160 nM.

Take B3: the Kd was determined as 22.5 nM.

In the case of B4, the Kd was found to be 5.8 nM.

With B5, the Kd was 3.2 nM.

On to B6, for which the Kd was found to be 4.4 nM.

On to B7, for which the Kd came to 23 nM.

As to B8, the equilibrium dissociation constant (Kd) was 3.3 nM.

B9: the equilibrium dissociation constant (Kd) came out at 21.5 nM.

Take B10: the Kd stood at 0.8 nM.

Consider B11, for which the Kd stood at 18 nM.

With B12, the Kd was found to be 2.8 nM.

Take B13: the Kd is 1.5 nM.

With B14, the Kd was 5 nM.

With B15, the Kd is 12.5 nM.

On to B16, for which the Kd was determined as 11.5 nM.

B17: the Kd is 0.3 nM.

Take B18: the Kd worked out at 8 nM.

For a further test, the target named is T2, murine MerTK extracellular domain …. The experiment in a line: SPR, Carterra LSA, antibody immobilised. Here is the method: as §1, §2, §3
Regarding B1, the binding result is on record as “no binding (tested: 300 nM)”.

For the molecule B2, the binding result is reported as “no binding (tested: 300 nM)”.

As to B3, the Kd stood at 310 nM.

For the molecule B4, the Kd was found to be 140 nM.

For B5, the Kd is 95 nM.

In the case of B6, the equilibrium dissociation constant (Kd) came out at 135 nM.

For B19, the binding result was “no binding (tested: 300 nM)”.

Regarding B7, the binding result is “no binding (tested: 300 nM)”.

For the molecule B8, the dissociation constant Kd stood at 2800 nM.

Regarding B9, the binding result is “no binding (tested: 300 nM)”.

In the case of B10, the Kd came to 690 nM.

For B11, the Kd came out at 114 nM.

For B12, the Kd was determined as 130 nM.

On to B14, for which the binding result is “no binding (tested: 300 nM)”.

For the molecule B15, the Kd is 140 nM.

Take B16: the Kd was found to be 850 nM.

As to B17, the Kd came out at 705 nM.

In another test the target is T3, human MerTK extracellular domain (ECD), …. The experiment in a line: SPR, Carterra LSA, antibody immobilised. The protocol:
as §1, §2, §3
Consider B1, for which the Kd turned out to be 86 nM.

With B2, the Kd stood at 80 nM.

For B3, the Kd was found to be 23 nM.

B4: the Kd stood at 5.7 nM.

Regarding B5, the Kd is 3.6 nM.

For the molecule B6, the Kd was 4.4 nM.

With B7, the Kd is 21.5 nM.

B8: the Kd worked out at 3.3 nM.

With B9, the dissociation constant Kd stood at 21.5 nM.

Turning to B10, the Kd stood at 0.1 nM.

Consider B11, for which the dissociation constant (Kd) is 17.5 nM.

Regarding B12, the Kd is 2.3 nM.

As to B13, the Kd was found to be 1 nM.

On to B14, for which the Kd came out at 4.9 nM.

As for B15, the Kd is 12.5 nM.

B16: the dissociation constant (Kd) worked out at 10 nM.

On to B17, for which the Kd was found to be 0.1 nM.

For the molecule B18, the dissociation constant (Kd) was determined as 8.3 nM.
